Laboratory results taken from patent publication US11813311B2, “Treatment and prevention of metabolic diseases” (Singapore Health Services PTE LTD., priority 2019, dated 2023).

Experiment: Blood pharmacokinetics and biodistribution of 125I-X209
Type: in vivo, mouse
Procedure: C57BL/6J mice (10-12-weeks old) were retro-orbitally injected (left eye) with 100 μl of freshly radiolabeled ^125I-X209 (5 μCi, 2.5 μg) in PBS. Mice were anesthetized with 2% isoflurane and blood were collected at several time points (2, 5, 10, 15, 30 m, 1, 2, 4, 6, 8 h, 1, 2, 3, 7, 14 and 21 days) post injection via submandibular bleeding. For biodistribution studies, blood was collected via cardiac puncture and tissues were harvested at the following time points: 1, 4 h, 1, 3, 7, 14, 21 days post injection. The radioactivity contents were measured using a gamma counter (2480 Wizard2, Perkin Elmer) with decay-corrections (100× dilution of 100 μl dose). The measured radioactivity was normalized to % injected dose/g tissue.

B1: X209: mouse anti-mouse IL-11Rα IgG (IgG1κ), neutralising; VH SEQ ID NO:24, VL SEQ ID NO:25 (antibody, V domains shown)
VH: QVQLQQPGAELVRPGSSVKLSCKASGYTFTNYWMHWLKQRPVQGLEWIGNIGPSDSKTHYNQKFKDKATLTVDKSSSTAYMQLNSLTSEDSAVYYCARGDYVLFTYWGQGTLVTVSA
VL: DIVLTQSPATLSLSPGERATLSCRASQSISNNLHWYQQKSHEAPRLLIKYASQSISGIPARFSGSGSGTDFTLSFSSLETEDFAVYFCQQSYSWPLTFGQGTKLEIK
modifications: Enx209 VH; Enx209 VL
125I-X209, mice
  liver uptake: good liver uptake
125I-X209, retro-orbital injection, mice
  in vivo half-life: approximately 18 days
